Among the data in a protein production outcome set (Wang et al. 2014) are protein production values, retold here.

A short description of the series: label from the status in PepcDB records.
Take “MLTLALCIMILFTYLCMFFNFKYSAHLSIYISQVILGYVVIIIHIGEHTLPIDILVVMSLGALLLHIKHKHLMQNRMSALFLKRLYYVAFKLVVFTLACFYISLIPIGINVIFLWISAISFSALFTFICYMMCSSNFLNLNNKPDFDVILVLGAGIFTENVTPMLASRLDRALTLYVQQPNAKFIVSGGQGPDEPISEALAMKRYLIHHGVESNHIMLEDQSTSTSENIQFSKSLIESHFECVPKIVCVTSQFHIMRALRFGQKFNLKLTGVGSHTPYHFFEIALIRDFLALMYQYKLLLTVYFAALFFICIITYWFIPSIPL”: the protein production result was “failed”.
The entry for “MLTLLPTPIGNLQDITLRSLEVLKVAEIILCEDTRVSKRLLSLLSQKELLPPKEYRYISLHSHNEEATLQNLPPDFFTQEVVYMSDAGMPCISDPGAALVRYAQERGISYTVLPGA” is “failed”; for “MLTTTRRAALISGLATTGLAAFGNRAFAQETGAVGAAVDKFAQDVMAAFPDQPGLGITVVENGQITLAKGYGVKALGGQDRCDESTVFGIASNTKAMTAALLAMLVEEGRVEWDAPVTQYLPDFAMKDPIVTKLLTVRDLLVHRSGLSLGAGDLMIWPAPTHTRAEIVAGLKHLPIGGQFRGGYAYDNVLYVVAGAVIEAVTGQTWEQVIKARIFDPLGMSNTVSSPRLVDQSRRALPHARLGPPVRGLGPQKVLPFDASFDAAGPAGGVNSCPADIGKWMQVQLGRGVSADGKRLWSEAQAREMWKPQTITSSSDGPSNENPARPSMQAYALGWYVQDHRGERLLWHTGGLAGFISYTGLLPGRKSGIMIMTNAEENPVLRSLRFGGPDRLQGRSDFDWIASSKRVQAEADAQTIKDAAAATTPKGGGAPPSLPLEAYAGVYRDPWYGTVTISVTGKGKKKGLYVSFDKTPLLRGKLGPFDGETFITTFEDRTQEDAFFTFDIKDGKAVSALVKAVSPLADFSYDYHDLRLTKEG” it is “failed”.
“MLTVRNHPGVMSHICGLFARRAFNVDGILCMPLAGGEESRIWLQVLDDQRLQQMISQLEKLEDVLQVCRFDSEMPIFDQVEDLVAHQR”: the protein production result is recorded as “not failed”.
Turning to “MLVGNYDATLVLTSLFVAILASYTALGMAGRVAASRGVAARVWLGGGAFAMGLGIWSMHFIGMLAFSLPIPLGYDVALTVASMALAVACSAFALWVVTRATLPWRRLAGAAALMGTGIAAMHYTGMAAMRMHPAIEYSPALFMLSVAVAIVASGAALWITHALRHNRPGAPAYRICAAIVMGLAIVGMHYTGMAAANFPQGSVCMAANSGISAGWLAVSTAAVTLAVLAVALVVAVLDTRLETRTSALNASLAQANEELVQMALHDTLTKLPNRALLDERLKQAIIRATAAGRGFSLLFIDLDGFKAINDAYGHGAGDLLLVEMAQRIKRAMRPQDCVARLGGDEFVVLADLPDPNDAAGLAERLIDTLTVPAEVQGHEVSVAASIGIALFPGDGADASTLLAHADAAMYHAKRLSQTHRVSFFEPSMNEDALEQLQLLQDLRLALPRNQLELHYQPKFVAPAGPVVGAEALLRWNHPTRGVIGPTVFIPIAERTGLIFSIGAWVLDEACRQMRQWRDMGHADWTVAVNLSSLQFSQPDLIDSIRATLARHDLPPRCLAIEITESTAMRDAEASLTVLRELAELGVSISIDDFGTGYSSLLYLKRLPATELKIDRGFVNQLEHDNEDAAIVSAIIALGQKLNLKIVAEGVETLAQQSFLTEMGCDSLQGFLLGRPLPAAEFLAHTLQPQLA”, the protein production result is “failed”.
The entry for “MLVSCAMRLHSGVFPDYAEKLPQEEKMEKEDSFPQRVWQIVAAIPEGYVTTYGDVAKLAGSPRAARQVGGVLKRLPEGSTLPWHRVVNRHGTISLTGPDLQRQRQALLAEGVMVSGSGQIDLQRYRWNY” is “failed”; for “MLVSSSKITRAREMVTKTEEKQLNQLEIQVDNGGGGTWEYLCLVRNLKVRRSEKVLKHGSSILNDQKKRSALGPDEWTLNEQVAIAAMDCQCLGVAQSCIKALQTKFPGSKRVGRLEALLLEAKGLWGEAEEAYASLLEDNPLDQAIHKRRVAISKALGKPSIAIELLNKYLELFMADHDAWRELAELYLSLQMYKQAAFCYEELILSQPTVPLYHLAYAEVLYTIGGVENIISARKYYAATVDLTGGKNTRALLGICLCASAIAQLSKGRNKEDKDATAAPELHSLAAAAVEKEYKQKAPDKLQLISSALRILKT” it is “failed”.
As to “MLVTGVARQLGGRFVRRIQRDPNVDRVIAVDAVRPEHHLGGADFIQADIRQPTIARVLAEHSVDTVVHMDVTGTALGTGSRATVKETNVIGTMQLLGACQKSPTVKRLVVKSSTNVYGSAPRDPAVFTETTPPKSLPSGGFAKDTVEVEGYVRGFARRRPDVAVCVLRFANILGPSADSPLASYFSLPVLPTVFGYDPRLQFAHEDDVIDVLRIASYEPRRGTLNSGTFNVAGDGVLLLSQCARRLGRPTVPLLLPAVTWVGSAVRTLGMTDFSPEQIRLLTHGRVVATNQMRETLGYVPKYTTAETFADFARSRGPGLLPPEALAGAVDRIAALPALGGGHPPTQSAN”, the protein production entry is “failed”.
For the sequence “MLVVYIALMICTMTPVLALQAGADMSVLVWLVFGLVIVKAVLLVDHFMEMKHAPWGWRMAAQGWAVVVVSVLAGIHLAG”, the protein production result is listed as “failed”.
Regarding “MLWRPVGHGVEALYLATPLGRRVGYGVYVYRYRGLLVDTGPPKARPFAPEAALLTHAHEDHAGGAFRLGLPVYGSALTAALVAAPKPLRLYRRLVWGSPRPAQVEVAERVGPLHLLPTPGHAPDHVALYDPEAGLFFGGDLFLGVRASLATPGFDLQALLQSLRRALALKPRAFYCAHAGPLQAPLEALQAKLDFLEGKREEALRLKARGLTPKEALRRLFGGESPLALLSGGEMSRLAFVEALMMEP”, the protein production entry is given as “failed”.
As to “MLYRLEKCCTPEIRLLSTYDVCSIAIAAPMRATRSQGVWDFFWETILMAYTTAQLVTAYTNANLGKAPDAATTLTLDAYATQTQTGGLSDAAALTNTLKLVNSTTAVAIQTYQFFTGVAPSAAGLDFLVDSTTNTNDLNDAYYSKFAQENRFINFSINLATGAGAGATAFAAAYTGVSYAQTVATAYDKIIGNAVATAAGVDVAAAVAFLSRQANIDYLTAFVRANTPFTAAADIDLAVKAALIGTILNAATVSGIGGYATATAAMINDLSDGALSTDNAAGVNLFTAYPSSGVSGSTLSLTTGTDTLTGTANNDTFVAGEVAGAATLTVGDTLSGGAGTDVLNWVQAAAVTALPTGVTISGIETMNVTSGAAITLNTSSGVTGLTALNTNTSGAAQTVTAGAGQNLTATTAAQAANNVAVDGGANVTVASTGVTSGTTTVGANSAASGTVSVSVANSSTTTTGAIAVTGGTAVTVAQTAGNAVNTTLTQADVTVTGNSSTTAVTVTQTAAATAGATVAGRVNGAVTITDSAAASATTAGKIATVTLGSFGAATIDSSALTTVNLSGTGTSLGIGRGALTATPTANTLTLNVNGLTTTGAITDSEAAADDGFTTINIAGSTASSTIASLVAADATTLNISGDARVTITSHTAAALTGITVTNSVGATLGAELATGLVFTGGAGADSILLGATTKAIVMGAGDDTVTVSSATLGAGGSVNGGDGTDVLVANVNGSSFSADPAFGGFETLRVAGAAAQGSHNANGFTALQLGATAGATTFTNVAVNVGLTVLAAPTGTTTVTLANATGTSDVFNLTLSSSAALAAGTVALAGVETVNIAATDTNTTAHVDTLTLQATSAKSIVVTGNAGLNLTNTGNTAVTSFDASAVTGTGSAVTFVSANTTVGEVVTIRGGAGADSLTGSATANDTIIGGAGADTLVYTGGTDTFTGGTGADIFDINAIGTSTAFVTITDAAVGDKLDLVGISTNGAIADGAFGAAVTLGAAATLAQYLDAAAAGDGSGTSVAKWFQFGGDTYVVVDSSAGATFVSGADAVIKLTGLVTLTTSAFATEVLTLA”, the protein production entry is on record as “failed”.
With “MLYSSDLLAIVGAGEQASLSPRRLCLFKTTTGLPLRELNFLTSILAVRMNKKRLVVVLLEKTFVYDLNTLVMLDTIDTVPNPKGLSAFSPSLEGCYLAVPASTTKGSVLVYNVMDLQSHSEIDAHRSPLAAIALSSNGMYIATGSEQGTLIRVHLVSEATKSYSFRRGTYPSTIYSLSFGPSTQLPDILIATSSSGSIHAFSLSLAINQRSKRSTSFLGSVLPDSVSDALDPAHHHVLQNAVSSGIRSYAVVRKIDKLEGTSSPSHFTSLRATVSVITYNGYFQEYTLSINNKNESLWTLEREFNLFSITTG”, the protein production entry was “failed”.
The entry for “MLYTTFSAIIPSFLIILIGYTVGKIFSEETMGLASKVAIWVMVPTVTFTFINEYTPSFSTLGEFGLGVAIIFVIFYLYSRLFKEKKEVIHVTAVTANVGYLGYPILLSLWGEEALSLGVVYATLNIIMFSAVLPMFLGEKVNVKNLFKLPYVYALVAGFLTGKLGWSFRELPEWLVNAILMLKQSAIPYLLIYVGLSVSKLKLGRHLSKIGGIIVVNKLFLAPLIALVFALIYGLEGLTAKVFVLETAMPAAVNAVILTSALGGDSETVSYGVTLTTFFAIFTLPVWAVILESIFG” is “failed”; for “MMAGFAQTTITKINQFYERWMPRLPAEMTARNVLVFCVVCLLCIGSVMVASASMPYAEYMHENPFHYVVRHAISIATAAIVAYLVYKVPLNVWFKNTFSFWLITILLLLAVLVIGTEVNGSRRWIRLAGFTLQPTEVAKVMMAIFTADYVVRRAKEVRTHWKGLVRLSGVMAITVGLIIAEPDLGATVVIVLMMVGIFFLAGAPPTQFAIMLGAVVMGIGFLILFEPYRLARAMSFTNPWADPLGTGYQLSNALMAFGRGEWFGTGLGHSVQKLSYLPEAHTDFMLAVLGEEFGFVGISIVIGLSFIMLACCIKIGHRALKHNFLRAGYLAYGISIIFLLQIIVNAGMNMGLMPTKGLTLPFISYGGTSLMMCAAMISLILRIDASTQEINPDREESNF” it is “failed”.
For the sequence “MMARVEKLRELMKENNLQGFLVTSPYNLRYLTNFTGTTGLAMITLDKAFFVTDFRYTEQAAEQATGFTIVKNTGHIFDEVADLAERLQLDNLAFEETQVSFADYSLLEEILPCELVPVMGLIEELREVK”, the protein production result is reported as “not failed”.
Regarding “MMCAARNTMSSSGSSPSGSDLQAFVMEFIITGFLMLVVCAVTTTKRTTEELEGLIIGATVTLNVIFVGEVSGASMNPARSIGPALVWGCYKGIWIYLLAPTLGAVSRALIHKMLPSIPNAEPKFSKTGSSHKRVSDLPL”, the protein production result is “failed”.
Take “MMDGSTFYFVAWIGWIIVTFFMKKDPIRWKLGACILIFIICSPLHVTIASFVVSVNALLLCIISFIGITLYSVWKKLYSLLSALIIAMLYTSFHLLEIYDPIWIVVDRVFLLSSALVYASVLLHGDRILRLCSLYVGMLQAELLVTFIFSKLNFPYDYGSLAFFDIVAISTLFMAILFWIAKASVYMERFKRKTRKRKARVIHD”: the protein production result was “failed”.
Consider “MMDVARAKFLPHEQVTFQVADATTLPFENEAFDAVVCQFGVMFFDKDTAFREAYRTLGRGGRYLFSVWDSRRYNPFASLAFEVLKQFFPLNPPRFLEAPVSSFEIDPIKEALIQSGFERIVISVQGREHDILDVRTFARGLVFSPVIEEIRERGGVEPEDIIAALAEALKREYGSRPTRYPMQAILFEAEKP”, for which the protein production entry is “failed”.
As to “MMDVNSSGRPDLYGHLRSFLLPEVGRGLPDLSPDGGADPVAGSWAPHLLSEVTASPAPTWDAPPDNASGCGEQINYGRVEKVVIGSILTLITLLTIAGNCLVVISVCFVKKLRQPSNYLIVSLALADLSVAVAVMPFVSVTDLIGGKWIFGHFFCNVFIAMDVMCCTASIMTLCVISIDRYLGITRPLTYPVRQNGKCMAKMILSVWLLSASITLPPLFGWAQNVNDDKVCLISQDFGYTIYSTAVAFYIPMSVMLFMYYQIYKAARKSAAKHKFPGFPRVEPDSVIALNGIVKLQKEVEECANLSRLLKHERKNISIFKREQKAATTLGIIVGAFTVCWLPFFLLSTARPFICGTSCSCIPLWVERTFLWLGYANSLINPFIYAFFNRDLRTTYRSLLQCQYRNINRKLSAAGMHEALKLAERPERPEFVLITRTSGVHQALENFPWGNEVNRWRKSCEYFCTDKMLTTVEKKVMIHD”, the protein production result is given as “failed”.
